Test results taken from PMC6431256 (Biochemistry, 2018).
Non-standard residues stand in square brackets, D forms with d. No end group written: not given here. pT = C[C@@H](OP(=O)(O)O)[C@H](N)C(=O)O; pS = N[C@@H](COP(=O)(O)O)C(=O)O

Tests used:
[1] = target: Pin1 WW domain (Pin1WW, residues 1–41) (human, UniProt Q13526 1-41); test: NMR titration
full-length Pin1 = full-length Pin1 (human, UniProt Q13526 1-163); test: NMR titration
full-length Pin1, sequence (Q13526 whole entry): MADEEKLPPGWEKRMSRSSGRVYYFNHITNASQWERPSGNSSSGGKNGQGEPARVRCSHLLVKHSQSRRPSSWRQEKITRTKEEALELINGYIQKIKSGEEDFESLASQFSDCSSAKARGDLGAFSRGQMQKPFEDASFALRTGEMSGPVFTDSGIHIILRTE

Pin1 WW domain (Pin1WW, residues 1–41), sequence (Q13526 1-41): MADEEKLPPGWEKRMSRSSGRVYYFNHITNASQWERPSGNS

| Binder | Kd [1] | Kd (full-length Pin1) |
| --- | --- | --- |
| KKAVK[pS]PAKAKAW [histone H1.1 phosphopeptide KKAVKpSPAKAKAW] | 890 µM | 500 µM |
| KATGAA[pT]PKKSAKW [histone H1.4 phosphopeptide KATGAApTPKKSAKW] | 111 µM | 180 µM |
